What was measured:
EGFR = target: T1, EGFR (UniProt P00533 25-645, limits assumed); assay: not described (cited: Fendly et al.)
T1 construct: also called ErbB1; epidermal growth factor receptor

ErbB4 = target: T2, ErbB4 (UniProt Q15303 26-649, limits assumed); assay: not described
T2 construct: also called HER4
T2 sequence (looked up): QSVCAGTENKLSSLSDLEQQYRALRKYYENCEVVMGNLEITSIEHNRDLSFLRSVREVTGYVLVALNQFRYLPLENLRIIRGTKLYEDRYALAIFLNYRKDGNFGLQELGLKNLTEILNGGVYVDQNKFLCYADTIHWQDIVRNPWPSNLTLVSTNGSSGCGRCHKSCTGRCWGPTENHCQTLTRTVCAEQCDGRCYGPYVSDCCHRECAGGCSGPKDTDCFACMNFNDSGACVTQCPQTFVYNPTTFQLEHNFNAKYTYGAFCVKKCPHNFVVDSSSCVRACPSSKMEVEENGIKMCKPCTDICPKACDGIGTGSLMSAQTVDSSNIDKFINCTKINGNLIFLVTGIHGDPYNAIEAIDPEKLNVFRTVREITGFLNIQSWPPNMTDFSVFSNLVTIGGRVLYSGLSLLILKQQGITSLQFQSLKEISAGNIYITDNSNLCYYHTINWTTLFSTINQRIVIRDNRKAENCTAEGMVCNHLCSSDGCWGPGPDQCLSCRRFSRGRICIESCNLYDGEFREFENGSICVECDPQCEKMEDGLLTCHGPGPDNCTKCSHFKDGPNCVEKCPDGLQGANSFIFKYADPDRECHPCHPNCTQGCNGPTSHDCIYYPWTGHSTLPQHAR

ErbB3 = target: T3, ErbB3 (human, UniProt P21860 20-1342); assay: not described
T3 construct: whole, on cells; In the co-immunoprecipitation it is the endogenous receptor of the cells (lysates); also called HER3
T3 sequence (P21860 20-1342): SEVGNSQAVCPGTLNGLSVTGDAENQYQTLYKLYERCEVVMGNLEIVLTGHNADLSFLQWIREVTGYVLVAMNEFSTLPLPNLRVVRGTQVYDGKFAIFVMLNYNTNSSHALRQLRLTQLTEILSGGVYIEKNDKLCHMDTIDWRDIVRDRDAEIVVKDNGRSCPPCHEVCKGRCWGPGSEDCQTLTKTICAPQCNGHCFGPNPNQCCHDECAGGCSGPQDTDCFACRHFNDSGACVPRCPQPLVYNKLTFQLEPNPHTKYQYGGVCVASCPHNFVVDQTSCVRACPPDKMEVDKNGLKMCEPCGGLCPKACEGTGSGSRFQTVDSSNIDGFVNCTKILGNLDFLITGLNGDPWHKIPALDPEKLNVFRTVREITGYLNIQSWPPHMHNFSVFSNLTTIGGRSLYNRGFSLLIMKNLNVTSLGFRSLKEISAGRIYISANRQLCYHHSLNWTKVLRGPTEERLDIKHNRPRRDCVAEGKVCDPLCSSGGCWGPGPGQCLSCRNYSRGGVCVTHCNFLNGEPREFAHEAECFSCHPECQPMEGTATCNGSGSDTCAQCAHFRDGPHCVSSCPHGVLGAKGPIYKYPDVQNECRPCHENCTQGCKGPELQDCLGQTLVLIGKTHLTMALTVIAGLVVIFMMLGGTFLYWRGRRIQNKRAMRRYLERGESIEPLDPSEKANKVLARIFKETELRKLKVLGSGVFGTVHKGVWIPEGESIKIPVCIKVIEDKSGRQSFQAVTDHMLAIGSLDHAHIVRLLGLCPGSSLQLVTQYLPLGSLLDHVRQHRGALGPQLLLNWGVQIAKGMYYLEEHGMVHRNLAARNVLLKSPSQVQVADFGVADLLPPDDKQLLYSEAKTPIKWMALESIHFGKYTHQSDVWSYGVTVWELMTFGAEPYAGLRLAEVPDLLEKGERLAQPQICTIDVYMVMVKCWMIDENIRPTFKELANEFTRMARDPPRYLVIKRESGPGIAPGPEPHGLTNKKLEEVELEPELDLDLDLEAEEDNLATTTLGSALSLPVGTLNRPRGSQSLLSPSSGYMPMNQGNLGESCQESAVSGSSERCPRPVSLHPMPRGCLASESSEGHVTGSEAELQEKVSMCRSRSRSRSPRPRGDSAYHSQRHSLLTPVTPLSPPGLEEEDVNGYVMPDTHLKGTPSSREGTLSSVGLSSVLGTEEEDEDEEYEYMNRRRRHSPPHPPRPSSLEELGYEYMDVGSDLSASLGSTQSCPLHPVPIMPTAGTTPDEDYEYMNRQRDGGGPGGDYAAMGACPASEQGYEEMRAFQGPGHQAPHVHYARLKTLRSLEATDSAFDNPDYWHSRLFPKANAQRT

Measured: binding result

B1: murine monoclonal antibody 2C4 (antibody, V domains shown)
VH: EVQLQQSGPELVKPGTSVKISCKASGFTFTDYTMDWVKQSHGKSLEWIGDVNPNSGGSIYNQRFKGKASLTVDRSSRIVYMELRSLTFEDTAVYYCARNLGPSFYFDYWGQGTTLTVSS
VL: DTVMTQSHKIMSTSVGDRVSITCKASQDVSIGVAWYQQRPGQSPKLLIYSASYRYTGVPDRFTGSGSGTDFTFTISSVQAEDLAVYYCQQYYIYPYTFGGGTKLEIK
notes: Intact murine monoclonal antibody from hybridoma; also called mu 2C4; ATCC HB-12697
no binding: all assays above
